Test system: Escherichia coli TOP10
Experiment: shrunken log2 fold change of peptide-encoding DNA abundance (4.5 h post-induction vs induction); higher = less antimicrobial activity (less host growth inhibition)
Settings: time post-induction: 4.5 h; library: site-saturation at positions 5, 18, 19, 20
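Also: peptides expressed intracellularly from a pBAD plasmid library in pooled LB shake-flask culture, induced with 0.3% L-arabinose, DNA abundance read by NGS, three biological replicates, DESeq2 with apeglm shrinkage.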

## RRIRNRPPRLPRPRPRPADKPRP
  shrunken log2 fold change: 0.0545

## RRIRCRPPRLPRPRPRPDWPPRP
  shrunken log2 fold change: 0.187

## RRIRVRPPRLPRPRPRPHFTPRP
  shrunken log2 fold change: -0.253

## RRIRYRPPRLPRPRPRPFSPPRP
  shrunken log2 fold change: -0.319

## RRIRKRPPRLPRPRPRPYWGPRP
  shrunken log2 fold change: -0.000921

## RRIRYRPPRLPRPRPRPDCVPRP
  shrunken log2 fold change: -0.3

## RRIRKRPPRLPRPRPRPCITPRP
  shrunken log2 fold change: -0.146

## RRIRGRPPRLPRPRPRPWSSPRP
  shrunken log2 fold change: -0.0552

## RRIRDRPPRLPRPRPRPDEAPRP
  shrunken log2 fold change: 0.12

## RRIRKRPPRLPRPRPRPDYTPRP
  shrunken log2 fold change: -0.193

## RRIRDRPPRLPRPRPRPICWPRP
  shrunken log2 fold change: 0.318

## RRIRTRPPRLPRPRPRPKWHPRP
  shrunken log2 fold change: -0.0752

## RRIRDRPPRLPRPRPRPQAPPRP
  shrunken log2 fold change: -0.0631

## RRIRGRPPRLPRPRPRPFNVPRP
  shrunken log2 fold change: -0.101

## RRIRPRPPRLPRPRPRPFFIPRP
  shrunken log2 fold change: -0.249

## RRIRARPPRLPRPRPRPNQMPRP
  shrunken log2 fold change: 0.143

## RRIRVRPPRLPRPRPRPPAGPRP
  shrunken log2 fold change: 0.522

## RRIRARPPRLPRPRPRPHWQPRP
  shrunken log2 fold change: 0.124

## RRIRKRPPRLPRPRPRPDIPPRP
  shrunken log2 fold change: -0.109

## RRIRRRPPRLPRPRPRPHSKPRP
  shrunken log2 fold change: -0.198

## RRIRARPPRLPRPRPRPWFRPRP
  shrunken log2 fold change: 0.133

## RRIRVRPPRLPRPRPRPKRCPRP
  shrunken log2 fold change: -0.0118

## RRIRFRPPRLPRPRPRPCRKPRP
  shrunken log2 fold change: 0.0312

## RRIRFRPPRLPRPRPRPAIGPRP
  shrunken log2 fold change: -0.0142

## RRIRFRPPRLPRPRPRPNSLPRP
  shrunken log2 fold change: -0.189

## RRIRHRPPRLPRPRPRPCMEPRP
  shrunken log2 fold change: -0.0962

## RRIRDRPPRLPRPRPRPQGGPRP
  shrunken log2 fold change: -0.17

## RRIRFRPPRLPRPRPRPQVMPRP
  shrunken log2 fold change: -0.265

## RRIRCRPPRLPRPRPRPKCWPRP
  shrunken log2 fold change: 0.302

## RRIRCRPPRLPRPRPRPTLTPRP
  shrunken log2 fold change: -0.14

## RRIRGRPPRLPRPRPRPLFAPRP
  shrunken log2 fold change: 1.36

## RRIRGRPPRLPRPRPRPRNDPRP
  shrunken log2 fold change: 0.113

## RRIRVRPPRLPRPRPRPWMIPRP
  shrunken log2 fold change: -0.0467

## RRIRNRPPRLPRPRPRPPRSPRP
  shrunken log2 fold change: 0.446

## RRIRQRPPRLPRPRPRPRMSPRP
  shrunken log2 fold change: 0.208

## RRIRDRPPRLPRPRPRPVRRPRP
  shrunken log2 fold change: 0.971

## RRIRGRPPRLPRPRPRPHQSPRP
  shrunken log2 fold change: 0.12

## RRIRKRPPRLPRPRPRPYVTPRP
  shrunken log2 fold change: -0.401

## RRIRKRPPRLPRPRPRPSCNPRP
  shrunken log2 fold change: 0.149

## RRIRFRPPRLPRPRPRPTLIPRP
  shrunken log2 fold change: -0.19

## RRIRLRPPRLPRPRPRPKCRPRP
  shrunken log2 fold change: 0.147

## RRIRGRPPRLPRPRPRPWWSPRP
  shrunken log2 fold change: 0.00664

## RRIRQRPPRLPRPRPRPYYAPRP
  shrunken log2 fold change: -0.898

## RRIRERPPRLPRPRPRPYCQPRP
  shrunken log2 fold change: -0.0159

## RRIRYRPPRLPRPRPRPTCEPRP
  shrunken log2 fold change: 0.00952

## RRIRIRPPRLPRPRPRPMHKPRP
  shrunken log2 fold change: -0.431

## RRIRERPPRLPRPRPRPPCFPRP
  shrunken log2 fold change: -0.0819

## RRIRERPPRLPRPRPRPIHHPRP
  shrunken log2 fold change: -0.7

## RRIRWRPPRLPRPRPRPQTGPRP
  shrunken log2 fold change: -0.000887

## RRIRARPPRLPRPRPRPTTMPRP
  shrunken log2 fold change: 0.156

## RRIRWRPPRLPRPRPRPYLKPRP
  shrunken log2 fold change: -0.911

## RRIRDRPPRLPRPRPRPHPIPRP
  shrunken log2 fold change: -0.152

## RRIRRRPPRLPRPRPRPEPMPRP
  shrunken log2 fold change: 0.882

## RRIRIRPPRLPRPRPRPPLCPRP
  shrunken log2 fold change: 0.142

## RRIRHRPPRLPRPRPRPWLTPRP
  shrunken log2 fold change: -0.00695

## RRIRARPPRLPRPRPRPDMGPRP
  shrunken log2 fold change: -0.0014

## RRIRRRPPRLPRPRPRPMDKPRP
  shrunken log2 fold change: -0.283

## RRIRHRPPRLPRPRPRPLVTPRP
  shrunken log2 fold change: 1.93

## RRIRGRPPRLPRPRPRPMMPPRP
  shrunken log2 fold change: 0.119

## RRIRNRPPRLPRPRPRPAFDPRP
  shrunken log2 fold change: 0.235

## RRIRMRPPRLPRPRPRPNRDPRP
  shrunken log2 fold change: 0.00277

## RRIRERPPRLPRPRPRPARDPRP
  shrunken log2 fold change: 0.19

## RRIRMRPPRLPRPRPRPMAMPRP
  shrunken log2 fold change: 0.0319

## RRIRVRPPRLPRPRPRPVDNPRP
  shrunken log2 fold change: -0.663

## RRIRNRPPRLPRPRPRPTDYPRP
  shrunken log2 fold change: -0.409

## RRIRRRPPRLPRPRPRPFYEPRP
  shrunken log2 fold change: -0.0293

## RRIRVRPPRLPRPRPRPNCCPRP
  shrunken log2 fold change: -0.0903

## RRIRNRPPRLPRPRPRPIFHPRP
  shrunken log2 fold change: -0.358

## RRIRTRPPRLPRPRPRPLGTPRP
  shrunken log2 fold change: -0.145

## RRIRDRPPRLPRPRPRPSCEPRP
  shrunken log2 fold change: 0.042

## RRIRFRPPRLPRPRPRPCVEPRP
  shrunken log2 fold change: -0.267

## RRIRERPPRLPRPRPRPVPGPRP
  shrunken log2 fold change: 0.186

## RRIRARPPRLPRPRPRPAYPPRP
  shrunken log2 fold change: 0.106

## RRIRVRPPRLPRPRPRPETGPRP
  shrunken log2 fold change: 0.206

## RRIRSRPPRLPRPRPRPPMHPRP
  shrunken log2 fold change: 0.25

## RRIRLRPPRLPRPRPRPYEKPRP
  shrunken log2 fold change: -0.159

## RRIRWRPPRLPRPRPRPGGFPRP
  shrunken log2 fold change: 0.664

## RRIRTRPPRLPRPRPRPRNQPRP
  shrunken log2 fold change: -0.139

## RRIRNRPPRLPRPRPRPHPEPRP
  shrunken log2 fold change: 0.00649

## RRIRPRPPRLPRPRPRPWNLPRP
  shrunken log2 fold change: -0.365

## RRIRQRPPRLPRPRPRPGHVPRP
  shrunken log2 fold change: 0.0119

## RRIRGRPPRLPRPRPRPMWVPRP
  shrunken log2 fold change: 0.168

## RRIRVRPPRLPRPRPRPPNVPRP
  shrunken log2 fold change: -0.0619

## RRIRGRPPRLPRPRPRPTTSPRP
  shrunken log2 fold change: 1.11

## RRIRYRPPRLPRPRPRPSHSPRP
  shrunken log2 fold change: -0.0971

## RRIRFRPPRLPRPRPRPFRMPRP
  shrunken log2 fold change: -0.173

## RRIRQRPPRLPRPRPRPVYAPRP
  shrunken log2 fold change: 0.16

## RRIRPRPPRLPRPRPRPILRPRP
  shrunken log2 fold change: -0.0705

## RRIRTRPPRLPRPRPRPCRDPRP
  shrunken log2 fold change: -0.118

## RRIRCRPPRLPRPRPRPAHIPRP
  shrunken log2 fold change: -0.0847

## RRIRARPPRLPRPRPRPIFNPRP
  shrunken log2 fold change: 0.0119

## RRIRTRPPRLPRPRPRPCCIPRP
  shrunken log2 fold change: -0.155

## RRIRCRPPRLPRPRPRPCWVPRP
  shrunken log2 fold change: -0.4

## RRIRMRPPRLPRPRPRPWQHPRP
  shrunken log2 fold change: 0.0948

## RRIRFRPPRLPRPRPRPKLFPRP
  shrunken log2 fold change: -0.0554

## RRIRHRPPRLPRPRPRPCLEPRP
  shrunken log2 fold change: -0.0502

## RRIRPRPPRLPRPRPRPRQMPRP
  shrunken log2 fold change: 0.184

## RRIRLRPPRLPRPRPRPGVAPRP
  shrunken log2 fold change: 0.529

## RRIRERPPRLPRPRPRPHRLPRP
  shrunken log2 fold change: -0.18

## RRIRMRPPRLPRPRPRPRPVPRP
  shrunken log2 fold change: 1.17

## RRIRHRPPRLPRPRPRPLTCPRP
  shrunken log2 fold change: -0.0216

## RRIRYRPPRLPRPRPRPNLYPRP
  shrunken log2 fold change: -0.658

## RRIRTRPPRLPRPRPRPMRGPRP
  shrunken log2 fold change: -0.0594

## RRIRVRPPRLPRPRPRPERKPRP
  shrunken log2 fold change: 0.111

## RRIRFRPPRLPRPRPRPKHYPRP
  shrunken log2 fold change: -0.271

## RRIRCRPPRLPRPRPRPWYHPRP
  shrunken log2 fold change: -0.392

## RRIRLRPPRLPRPRPRPWSNPRP
  shrunken log2 fold change: -0.195

## RRIRRRPPRLPRPRPRPRLFPRP
  shrunken log2 fold change: 0.593

## RRIRSRPPRLPRPRPRPCHQPRP
  shrunken log2 fold change: -0.0637

## RRIRGRPPRLPRPRPRPCVCPRP
  shrunken log2 fold change: 0.617

## RRIRERPPRLPRPRPRPTVMPRP
  shrunken log2 fold change: -0.193

## RRIRQRPPRLPRPRPRPQTFPRP
  shrunken log2 fold change: 0.028

## RRIRCRPPRLPRPRPRPQTVPRP
  shrunken log2 fold change: -0.275

## RRIRQRPPRLPRPRPRPVARPRP
  shrunken log2 fold change: 0.0118

## RRIRHRPPRLPRPRPRPRPWPRP
  shrunken log2 fold change: 0.0732

## RRIRQRPPRLPRPRPRPQFLPRP
  shrunken log2 fold change: -0.359

## RRIRTRPPRLPRPRPRPVDAPRP
  shrunken log2 fold change: 0.188

## RRIRLRPPRLPRPRPRPYTFPRP
  shrunken log2 fold change: -0.00482

## RRIRRRPPRLPRPRPRPNLLPRP
  shrunken log2 fold change: -0.00833

## RRIRERPPRLPRPRPRPIATPRP
  shrunken log2 fold change: 0.221

## RRIRYRPPRLPRPRPRPTGLPRP
  shrunken log2 fold change: -0.101

## RRIRGRPPRLPRPRPRPHCCPRP
  shrunken log2 fold change: 0.0841

## RRIRCRPPRLPRPRPRPYVVPRP
  shrunken log2 fold change: 0.0333

## RRIRPRPPRLPRPRPRPEHTPRP
  shrunken log2 fold change: -0.112

## RRIRFRPPRLPRPRPRPQCEPRP
  shrunken log2 fold change: 0.0491

## RRIRSRPPRLPRPRPRPTTTPRP
  shrunken log2 fold change: 0.0739

## RRIRQRPPRLPRPRPRPNKIPRP
  shrunken log2 fold change: -0.388

## RRIRFRPPRLPRPRPRPRCWPRP
  shrunken log2 fold change: 0.309

## RRIRMRPPRLPRPRPRPEWLPRP
  shrunken log2 fold change: 0.056

## RRIRGRPPRLPRPRPRPDHAPRP
  shrunken log2 fold change: 0.217

## RRIRRRPPRLPRPRPRPACEPRP
  shrunken log2 fold change: 0.192

## RRIRVRPPRLPRPRPRPGQHPRP
  shrunken log2 fold change: 0.0795

## RRIRSRPPRLPRPRPRPDDYPRP
  shrunken log2 fold change: 0.0211

## RRIRERPPRLPRPRPRPGWWPRP
  shrunken log2 fold change: -0.0125

## RRIRWRPPRLPRPRPRPQMFPRP
  shrunken log2 fold change: 0.197

## RRIRFRPPRLPRPRPRPWKVPRP
  shrunken log2 fold change: -0.00133

## RRIRRRPPRLPRPRPRPSNFPRP
  shrunken log2 fold change: -0.177

## RRIRMRPPRLPRPRPRPGCHPRP
  shrunken log2 fold change: 0.0532

## RRIRVRPPRLPRPRPRPVGCPRP
  shrunken log2 fold change: 0.417

## RRIRERPPRLPRPRPRPFATPRP
  shrunken log2 fold change: 0.119

## RRIRVRPPRLPRPRPRPAPQPRP
  shrunken log2 fold change: 0.618

## RRIRDRPPRLPRPRPRPGHAPRP
  shrunken log2 fold change: 0.648

## RRIRHRPPRLPRPRPRPEIDPRP
  shrunken log2 fold change: 0.0729

## RRIRQRPPRLPRPRPRPRGEPRP
  shrunken log2 fold change: 0.348

## RRIRYRPPRLPRPRPRPFNLPRP
  shrunken log2 fold change: -0.271

## RRIRQRPPRLPRPRPRPSNVPRP
  shrunken log2 fold change: -0.0428

## RRIRCRPPRLPRPRPRPTGDPRP
  shrunken log2 fold change: 0.231

## RRIRLRPPRLPRPRPRPAHGPRP
  shrunken log2 fold change: -0.0453

## RRIRRRPPRLPRPRPRPQFFPRP
  shrunken log2 fold change: -0.259

## RRIRYRPPRLPRPRPRPERQPRP
  shrunken log2 fold change: -0.01
